Assay results: paper PMC10204293, “S100A6 inhibits MDM2 to suppress breast cancer growth and enhance sensitivity to chemotherapy” (Breast Cancer Research : BCR, 2023)

B1: GST-S100A6 EF-hand I (1–47) (domain or fragment)
chain: not shown
notes: S100A6, human, EF-hand I, residues 1–47; also called N-terminal EF-hand of S100A6; source: E. coli BL21 (DE3), purified (GST-tag purification kit)
B2: GST-S100A6 EF-hand II (48–90) (domain or fragment)
chain: not shown
notes: S100A6, human, EF-hand II, residues 48–90; also called C-terminal EF-hand of S100A6; source: E. coli BL21 (DE3), purified (GST-tag purification kit)

Molecular target: T1, HA-MDM2 full-length (1–491) (human, UniProt Q00987 1-491)
T1 construct: Cloned into a T7 promotor-HA expression vector; also called HA-tagged full-length MDM2; source: E. coli BL21 (DE3), purified (His-tag purification kit)
Experiment: pull-down; about 100 µg of a mixture of GST, GST-S100A6 or its fragments with HA-MDM2 or its fragments on 100 µL glutathione agarose, overnight at 4 °C; blot with anti-HA
Conditions: both partners purified

Binder	binding result
B1	binds
B2	binds
